We go through three molecules from patent US20170122932A1 (MEDICAL AND BIOLOGICAL LABORATORIES, published 2017).

Series [1] deals with the molecule itself. Kind of series: fluorescent foci in HEK293 cells co-expressing PB1-mAG1-FKBP12, 500 nM rapamycin; homodimer formation of CD80. As for the experimental part: (§1) (A) CD80-FRB and PB1-mAG1-FKBP12; and [0651] (B) CD2-FRB and PB1-mAG1-FKBP12.
(§2) Specifically, first, HEK293 cells were cultured in a culture solution (DMEM high glucose, 10% FBS, 1% penicillin-streptomycin). Then, on the day before the transfection, the cells were seeded onto an 8-well chamber, and cultured in 100 μL of the culture solution per well. Subsequently, a DNA solution prepared by mixing 200 ng of each of the plasmids was diluted with 10 μL of OptiMEM. Thereafter, 0.8 μL of Fugene HD was added thereto and then stirred. The resultant was further mixed with 90 μl of the culture solution. After that, the obtained mixture solution was added to the cultured cells and cultured for 20 hours.

Series [2] concerns the molecule itself. Description: fluorescent foci in HEK293 cells co-expressing PB1-mAG1-FKBP12, 500 nM rapamycin; negative control for homodimer formation. As for the experimental part: as §1, §2
The target in the next series is T1, mAG1-Cyclin D1 (UniProt P24385 1-295).
T1 construct: whole, on cells; also called hmAG1-Cyclin D1
Description: fluorescent foci in HEK293 cells expressing mAG1-Cyclin D1, p21-PB1 and CDK4-PB1.

T1 sequence (P24385 other isoform, or with tags, fused parts or gaps): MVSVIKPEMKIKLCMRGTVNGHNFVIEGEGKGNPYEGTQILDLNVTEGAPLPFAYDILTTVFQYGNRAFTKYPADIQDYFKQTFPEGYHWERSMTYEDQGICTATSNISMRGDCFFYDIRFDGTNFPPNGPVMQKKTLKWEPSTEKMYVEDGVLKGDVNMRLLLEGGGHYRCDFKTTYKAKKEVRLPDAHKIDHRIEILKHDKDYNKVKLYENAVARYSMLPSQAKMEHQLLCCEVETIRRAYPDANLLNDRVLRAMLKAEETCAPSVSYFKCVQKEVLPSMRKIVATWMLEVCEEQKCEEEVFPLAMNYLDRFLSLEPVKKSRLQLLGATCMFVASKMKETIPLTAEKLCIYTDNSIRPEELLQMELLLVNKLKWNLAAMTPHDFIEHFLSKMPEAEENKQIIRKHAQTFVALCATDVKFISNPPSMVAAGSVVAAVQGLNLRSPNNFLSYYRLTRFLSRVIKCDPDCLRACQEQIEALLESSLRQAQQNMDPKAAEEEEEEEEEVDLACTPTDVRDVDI

B1: CD80-FRB (other, not shown: small tags and cut ends)
chain: VIHVTKEVKEVATLSCGHNVSVEELAQTRIYWQKEKKMVLTMMSGDMNIWPEYKNRTIFDITNNLSIVILALRPSDEGTYECVVLKYEKDAFKREHLAEVTLSVKADFPTPSISDFEIPTSNIRRIICSTSGGFPEPHLSWLENGEELNAINTTVSQDPETELYAVSSKLDFNMTTNHSFMCLIKYGHLRVNQTFNWNTTKQEHFPDNLLPSWAITLISVNGIFVICCLTYCFAPRCRERRRNERLRRESVRPVEMWHEGLEEASRLYFGERNVKGMFEVLEPLHAMMERGPQTLKETSFNQAYGRDLMEAQEWCRKYMKSGNVKDLTQAWDLYYHVFRRISKQ
notes: whole, on cells; In the assay it was joined by rapamycin to PB1-mAG1-FKBP12
For B1, the binding result in series [1] is “binds”.

B2: CD2-FRB (other, not shown: small tags and cut ends)
chain: KEITNALETWGALGQDINLDIPSFQMSDDIDDIKWEKTSDKKKIAQFRKEKETFKEKDTYKLFKNGTLKIKHLKTDDQDIYKVSIYDTKGKNVLEKIFDLKIQERVSKPKISWTCINTTLTCEVMNGTDPELNLYQDGKHLKLSQRVITHKWTTSLSAKFKCTAGNKVSKESSVEPVSCPEKGLDIYLIIGICGGGSLLMVFVALLVFYITKRKKQRSRRNDEELETRAHRVATEERGRKPHQIPASTPQNPATSQHPPPPPGHRSQAPSHRPPPPGHRVQHQPQKRPPAPSGTQVHQQKGPPLPRPRVQPKPPHGAAENSLSPSSNEMWHEGLEEASRLYFGERNVKGMFEVLEPLHAMMERGPQTLKETSFNQAYGRDLMEAQEWCRKYMKSGNVKDLTQAWDLYYHVFRRISKQ
notes: whole, on cells
For the molecule B2, the binding result in series [2] is “no binding”.

B3: CDK4-PB1 (other, not shown: small tags and cut ends)
chain: ATSRYEPVAEIGVGAYGTVYKARDPHSGHFVALKSVRVPNGGGGGGGLPISTVREVALLRRLEAFEHPNVVRLMDVCATSRTDREIKVTLVFEHVDQDLRTYLDKAPPPGLPAETIKDLMRQFLRGLDFLHANCIVHRDLKPENILVTSGGTVKLADFGLARIYSYQMALTPVVVTLWYRAPEVLLQSTYATPVDMWSVGCIFAEMFRRKPLFCGNSEADQLGKIFDLIGLPPEDDWPRDVSLPRGAFPPRGPRPVQSVVPEMEESGAQLLLEMLTFNPHKRISAFRALQHSYLHKDEGNPEMASLTVKAYLLGKEDAAREIRRFSFCCSPEPEAEAEAAAGPGPCERLLSRVAALFPALRPGGFQAHYRDEDGDLVAFSSDEELTMAMSYVKDDIFRIYIKEK
notes: whole, on cells
For B3, the binding result with mAG1-Cyclin D1 is “binds”.
